Results: patent publication US12589164

Tests used:
[1] = target: peptide probe with CM … (SEQ ID NO: 641)
[2] = target: (MCA)-His-Gln-Ser-Arg-Ser-Gly-Pro-Trp-Gly-Leu-X1-Lys (DNP)-D-Arg (SEQ ID NO: 659) where X1 is absent
[3] = target: (MCA)-His-Gln-Ser-Arg-Pro-Trp-Gly-Leu-Gly-Ser-Lys (DNP)-D-Arg (SEQ ID NO: 660)
[4] = target: peptide probe with CM … (SEQ ID NO: 644)
[5] = target: (MCA)-Ser-Pro-Trp-Gly-Leu-His-Gln-Ser-Lys-Ser-Lys (DNP)-D-Arg (SEQ ID NO: 664)
[6] = target: (MCA)-His-Gln-Ser-Arg-Ser-Ala-Ile-Ala-Leu-X1-X2-Lys (DNP)-D-Arg (SEQ ID NO: 653) where X1 is Y and X2 is A
[7] = target: (MCA)-His-Gln-Ser-Arg-Ser-Pro-Trp-Gly-Leu-Gly-Lys (DNP)-D-Arg (SEQ ID NO: 665)
[8] = target: peptide probe with CM … (SEQ ID NO: 648)
[9] = target: peptide probe with CM … (SEQ ID NO: 642)
[10] = target: peptide probe with CM … (SEQ ID NO: 646)
[11] = target: peptide probe with CM … (SEQ ID NO: 645)
[12] = target: (MCA)-Ser-Pro-Trp-Gly-Leu-His-Gln-Ser-Arg-Gly-Lys (DNP)-D-Arg (SEQ ID NO: 663)
[13] = target: (MCA)-Ser-Pro-Trp-Gly-Leu-His-Gln-Ser-Arg-Ser-Lys (DNP)-D-Arg (SEQ ID NO: 657)
[14] = target: D-Arg-Lys (DNP)-Ala-Ile-Ala-Leu-His-Gln-Ser-Arg-Ser-Lys (MCA)-D-Arg (SEQ ID NO: 658)
[15] = target: peptide probe with CM … (SEQ ID NO: 650)
[16] = target: (MCA)-His-Gln-Ser-Arg-Ser-Ala-Ile-Ala-Leu-X1-Gly-Lys (DNP)-D-Arg (SEQ ID NO: 654) where X1 is Y
[17] = target: peptide probe with CM … (SEQ ID NO: 649)
[18] = target: (MCA)-His-Gln-Ser-Arg-Ser-Ala-Ile-Ala-Leu-Gly-Ser-Lys (DNP)-D-Arg (SEQ ID NO: 655)
[19] = target: peptide probe with CM … (SEQ ID NO: 643)
[20] = target: (MCA)-His-Gln-Ser-Arg-Ser-Pro-Trp-Gly-Gly-Ser-Lys (DNP)-D-Arg (SEQ ID NO: 661)
[21] = target: peptide probe with CM … (SEQ ID NO: 647)
[22] = target: peptide probe with CM … (SEQ ID NO: 639)

Row | Protein | Probe Cleavage (pM/s) [1] | Probe Cleavage (pM/s) [2] [pM/s] | Probe Cleavage (pM/s) [3] [pM/s] | Probe Cleavage (pM/s) [4] [pM/s] | Probe Cleavage (pM/s) [5] [pM/s] | Probe Cleavage (pM/s) [6] [pM/s] | Probe Cleavage Kcat/KM [6] [M⁻¹ s⁻¹] | Probe Cleavage (pM/s) [7] [pM/s] | Probe Cleavage (pM/s) [8] [pM/s] | Probe Cleavage (pM/s) [9] [pM/s] | Probe Cleavage (pM/s) [10] | Probe Cleavage (pM/s) [11] [pM/s] | Probe Cleavage (pM/s) [12] [pM/s] | Probe Cleavage (pM/s) [13] [pM/s] | Probe Cleavage Kcat/KM [13] [M⁻¹ s⁻¹] | Probe Cleavage (pM/s) [14] [pM/s] | Probe Cleavage Kcat/KM [14] [M⁻¹ s⁻¹] | Probe Cleavage (pM/s) [15] [pM/s] | Probe Cleavage (pM/s) [16] [pM/s] | Probe Cleavage Kcat/KM [16] [M⁻¹ s⁻¹] | also measured
1 | membrane type serine protease 1 (MT-SP1) (protein) VVGGTDADEGEWPWQVSLHALGQGHICGASLISPNWLVSAAHCYIDDRGFRYSDPTQWTAFLGLHDQSQRSAPGVQERRLKRIISHPFFNDFTFDYDIALLELEKPAEYSSMVRPICLPDASHVFPAGKAIWVTGWGHTQYGGTGALILQKGEIRVINQTTCENLLPQQITPRMMCVGFLSGGVDSCQGDSGGPLSSVEADGRIFQAGVVSWGDGCAQRNKPGVYTRLPLFRDWIKENTGV | Above limit of quantitation | 9930 | 32 | 8 | 1630 | 1750 | 630000 | 1210 | 4120 | 1860 | Above limit of quantitation | 7330 | 540 | 1280 | 28000 | 11500 | 55000 | 7920 | 1960 | 790000 | Probe Cleavage Kcat/KM [7]: 35000 M⁻¹ s⁻¹; Probe Cleavage (pM/s) [17]: 7780 pM/s; Probe Cleavage (pM/s) [18]: Above limit of quantitation; Probe Cleavage Kcat/KM [18]: 510000 M⁻¹ s⁻¹; Probe Cleavage (pM/s) [19]: 11300 pM/s; Probe Cleavage (pM/s) [20]: 3470 pM/s; Probe Cleavage (pM/s) [21]: Above limit of quantitation; Probe Cleavage (pM/s) [22]: 10800 pM/s
2 | MMP2 (protein) YNFFPRKPKWDKNQITYRIIGYTPDLDPETVDDAFARAFQVWSDVTPLRFSRIHDGEADIMINFGRWEHGDGYPFDGKDGLLAHAFAPGTGVGGDSHFDDDELWTLGEGQVVRVKYGNADGEYCKFPFLFNGKEYNSCTDTGRSDGFLWCSTTYNFEKDGKYGFCPHEALFTMGGNAEGQPCKFPFRFQGTSYDSCTTEGRTDGYRWCGTTEDYDRDKKYGFCPETAMSTVGGNSEGAPCVFPFTFLGNKYESCTSAGRSDGKMWCATTANYDDDRKWGFCPDQGYSLFLVAAHEFGHAMGLEHSQDPGALMAPIYTYTKNFRLSQDDIKGIQELYGASPDIDLGTGPTPTLGPVTPEICKQDIVFDGIAQIRGEIFFFKDRFIWRTVTPRDKPMGPLLVATFWPELPEKIDAVYEAPQEEKAVFFAGNEYWIYSASTLERGYPKPLTSLGLPPDVQRVDAAFNWSKNKKTYIFAGDKFWRYNEVKKKMDPGFPKLIADAWNAIPDNLDAVVDLQGGGHSYFFKGAYYLKLENQSLKSVKFGSIKSDWLGC | 726 pM/s | 94.8 | 4020 | 696 | 6640 | 468 | 29000 | 44.2 | 488 | 692 | 1390 pM/s | 594 | 6840 | 2550 | 54000 | 4220 | 17000 | 410 | 434 | 67000 | Probe Cleavage (pM/s) [17]: 61.1 pM/s; Probe Cleavage (pM/s) [18]: 76.9 pM/s; Probe Cleavage Kcat/KM [18]: 4900 M⁻¹ s⁻¹; Probe Cleavage (pM/s) [19]: 623 pM/s; Probe Cleavage (pM/s) [20]: 61.6 pM/s; Probe Cleavage (pM/s) [21]: 65.4 pM/s; Probe Cleavage (pM/s) [22]: 17600 pM/s
